Patent US7285381

Columns and labels:
[1] = molecular target: AAV2 capsid VP1 mutant ΔXho (deletion between the XhoI-XhoI cleavage sites of VP-1, 62 amino acids) (AAV2) (UniProt P03135); test: A20 capsid ELISA on virus stock
[2] = molecular target: AAV2 capsid VP3 mutant ins587 (insertion after amino acid 587, site LQRGN RQAAT) (AAV2) (UniProt P03135); test: A20 capsid ELISA on virus stock
[3] = molecular target: AAV2 capsid VP1 mutant ΔBH+L (deletion between BsrBI and HindIII, and insertion of the P1 peptide) (AAV2) (UniProt P03135); test: A20 capsid ELISA on virus stock
[4] = molecular target: AAV2 capsid VP1 mutant ΔBH (deletion between BsrBI and HindIII cleavage sites of VP-1, 29 amino acids) (AAV2) (UniProt P03135); test: A20 capsid ELISA on virus stock
[5] = molecular target: AAV2 capsid VP1 mutant B+L (insertion of the P1 peptide at the BsrBI cleavage site) (AAV2) (UniProt P03135); test: A20 capsid ELISA on virus stock
[6] = molecular target: AAV2 capsid VP3 mutant ins447 (insertion after amino acid 447, site YYLSR TNTPS) (AAV2) (UniProt P03135); test: A20 capsid ELISA on virus stock
[7] = molecular target: Wild-type AAV2 capsid (AAV2) (UniProt P03135); test: A20 capsid ELISA on virus stock
[8] = molecular target: AAV2 capsid mutant I-587 (P1 peptide inserted after amino acid 587) (AAV2) (UniProt P03135); test: A20 capsid ELISA on CsCl-purified particles
[9] = molecular target: AAV2 capsid mutant I-447 (P1 peptide inserted after amino acid 447) (AAV2) (UniProt P03135); test: A20 capsid ELISA on CsCl-purified particles
[10] = molecular target: Wild-type AAV2 capsid (AAV2) (UniProt P03135); test: A20 capsid ELISA on CsCl-purified particles

Substance: A20 monoclonal antibody
- capsid titer (ELISA with A20 MAb) [1]: 5e+10 particles/ml
- capsid titer (ELISA with A20 MAb) [2]: 2e+10 particles/ml
- capsid titer (ELISA with A20 MAb) [3]: 5e+10 particles/ml
- capsid titer (ELISA with A20 MAb) [4]: 4e+09 particles/ml
- capsid titer (ELISA with A20 MAb) [5]: 5e+09 particles/ml
- capsid titer (ELISA with A20 MAb) [6]: 4e+10 particles/ml
- capsid titer (ELISA with A20 MAb) [7]: 1e+11 particles/ml
- titer (ELISA with A20 MAb) [8]: 3e+12 particles/ml
- titer (ELISA with A20 MAb) [9]: 8e+11 particles/ml
- titer (ELISA with A20 MAb) [10]: 6e+12 particles/ml
